Measured values from US20030220243A1 (Eli Lilly, published 2003).
Residue numbers refer to the chain shown, from its start. Ends that are not written are not given here.

B1: Val^8-Lys^20-GLP-1(7-37)OH (peptide)
peptide: HVEGTFTSDVSSYKEGQAAKEFIAWLVKGRG
B2: Val^8-Glu^30-GLP-1(7-37)OH (peptide)
peptide: B1 peptide with K14L, A24E
B3: Val^8-Glu^22-Lys^23-GLP-1(7-37)OH (peptide)
peptide: B1 peptide with K14L, G16E, Q17K
B4: Val^8-His^27-GLP-1(7-37)OH (peptide)
peptide: B1 peptide with K14L, E21H
B5: Val^8-Glu^33-GLP-1(7-37)OH (peptide)
peptide: B1 peptide with K14L, V27E
B6: Val^8-Glu^34-GLP-1(7-37)OH (peptide)
peptide: B1 peptide with K14L, K28E
B7: Val^8-Ala^11-GLP-1(7-37)OH (peptide)
peptide: B1 peptide with T5A, K14L
B8: Ala^8-Glu^26-GLP-1(7-37)OH (peptide)
peptide: B1 peptide with V2A, K14L, K20E
B9: Val^8-Lys^22-GLP-1(7-37)OH (peptide)
peptide: B1 peptide with K14L, G16K
B10: Val^8-Glu^16-GLP-1(7-37)OH (peptide)
peptide: B1 peptide with V10E, K14L
B11: Val^8-Glu^35-GLP-1(7-37)OH (peptide)
peptide: B1 peptide with K14L, G29E
B12: Val^8-Lys^33-Asn^34-GLP-1(7-37)OH (peptide)
peptide: B1 peptide with K14L, V27K, K28N
B13: Val^8-His^30-GLP-1(7-37)OH (peptide)
peptide: B1 peptide with K14L, A24H
B14: Val^8-Pro^35-GLP-1(7-37)OH (peptide)
peptide: B1 peptide with K14L, G29P
B15: Val^8-His^37-GLP-1(7-37)OH (peptide)
peptide: B1 peptide with K14L, G31H
B16: Val^8-Leu^16-Glu^26-GLP-1(7-37)OH (peptide)
peptide: B1 peptide with V10L, K14L, K20E
B17: Val^8-Tyr^16-GLP-1(7-37)OH (peptide)
peptide: B1 peptide with V10Y, K14L
B18: Val^8-His^35-GLP-1(7-37)OH (peptide)
peptide: B1 peptide with K14L, G29H
B19: Val^8-Glu^36-GLP-1(7-37)OH (peptide)
peptide: B1 peptide with K14L, R30E
B20: Gly^8-His^11-GLP-1(7-37)OH (peptide)
peptide: B1 peptide with V2G, T5H, K14L
B21: Val^8-Tyr^12-GLP-1(7-37)OH (peptide)
peptide: B1 peptide with F6Y, K14L
B22: Val^8-Ala^22-GLP-1(7-37)OH (peptide)
peptide: B1 peptide with K14L, G16A
B23: Ala^8-His^26-GLP-1(7-37)OH (peptide)
peptide: B1 peptide with V2A, K14L, K20H
B24: Val^8-Ser^30-GLP-1(7-37)OH (peptide)
peptide: B1 peptide with K14L, A24S
B25: Val^8-Ser^22-GLP-1(7-37)OH (peptide)
peptide: B1 peptide with K14L, G16S
B26: Val^8-Ala^33-GLP-1(7-37)OH (peptide)
peptide: B1 peptide with K14L, V27A
B27: Val^8-Asp^22-GLP-1(7-37)OH (peptide)
peptide: B1 peptide with K14L, G16D
B28: Val^8-Lys^23-GLP-1(7-37)OH (peptide)
peptide: B1 peptide with K14L, Q17K
B29: Val^8-Ala^16-GLP-1(7-37)OH (peptide)
peptide: B1 peptide with V10A, K14L
B30: Val^8-Lys^33-Val^34-GLP-1(7-37)OH (peptide)
peptide: B1 peptide with K14L, V27K, K28V
B31: Val^8-Gly^33-GLP-1(7-37)OH (peptide)
peptide: B1 peptide with K14L, V27G
B32: Val^8-Asp^30-GLP-1(7-37)OH (peptide)
peptide: B1 peptide with K14L, A24D
B33: Val^8-Lys^22-Glu^30-GLP-1(7-37)OH (peptide)
peptide: B1 peptide with K14L, G16K, A24E
B34: Gln^22-GLP-1(7-37)OH (peptide)
peptide: B1 peptide with V2A, K14L, G16Q
B35: Val^8-Lys^24-GLP-1(7-37)OH (peptide)
peptide: B1 peptide with K14L, A18K
B36: Val^8-His^22-GLP-1(7-37)OH (peptide)
peptide: B1 peptide with K14L, G16H
B37: Val^8-His^36-GLP-1(7-37)OH (peptide)
peptide: B1 peptide with K14L, R30H
B38: Val^8-His^24-GLP-1(7-37)OH (peptide)
peptide: B1 peptide with K14L, A18H
B39: Val^8-Pro^22-GLP-1(7-37)OH (peptide)
peptide: B1 peptide with K14L, G16P
B40: Val^8-Lys^11-GLP-1(7-37)OH (peptide)
peptide: B1 peptide with T5K, K14L
B41: Val^8-Gly^34-Lys^35-GLP-1(7-37)OH (peptide)
peptide: B1 peptide with K14L, K28G, G29K
B42: Gly^8-Glu^30-GLP-1(7-37)OH (peptide)
peptide: B1 peptide with V2G, K14L, A24E
B43: Val^8-Lys^22-GLP-1(7-36)NH2 (peptide)
peptide: HVEGTFTSDVSSYLEKQAAKEFIAWLVKGR-NH2
B44: Val^8-Glu^22-GLP-1(7-36)NH2 (peptide)
peptide: HVEGTFTSDVSSYLEEQAAKEFIAWLVKGR-NH2
B45: Val^8-Glu^23-GLP-1(7-36)OH (peptide)
peptide: HVEGTFTSDVSSYLEGEAAKEFIAWLVKGR
B46: Val^8-Gly^36-Pro^37-GLP-1(7-37)NH2 (peptide)
peptide: HVEGTFTSDVSSYLEGQAAKEFIAWLVKGGP-NH2
B47: Val^8-Lys^22-Glu^23-GLP-1(7-37)OH (peptide)
peptide: HVEGTFTSDVSSYLEKEAAKEFIAWLVKGRH

target: GLP-1 receptor; assay: cell-based or functional assay

Compared with B1, B2 is lower in “GLP-1 Receptor Activation” value: 0.33 relative to GLP-1(7-37)OH for the first, 0.29 relative to GLP-1(7-37)OH for the second.

First: B3
Second: B4
The “GLP-1 Receptor Activation” value of the first is higher: 1.43 relative to GLP-1(7-37)OH for the first, 0.37 relative to GLP-1(7-37)OH for the second.

First: B5
Second: B6
The “GLP-1 Receptor Activation” value of the first is lower: 0.039 relative to GLP-1(7-37)OH for the first, 0.17 relative to GLP-1(7-37)OH for the second.

First: B7
Second: B8
The “GLP-1 Receptor Activation” value of the first is lower: 0.021 relative to GLP-1(7-37)OH for the first, 0.7 relative to GLP-1(7-37)OH for the second.

First: B9
Second: B10
The “GLP-1 Receptor Activation” value of the first is higher: 0.58 relative to GLP-1(7-37)OH for the first, 0.047 relative to GLP-1(7-37)OH for the second.

First: B11
Second: B12
The “GLP-1 Receptor Activation” value of the first is higher: 0.15 relative to GLP-1(7-37)OH for the first, 0.09 relative to GLP-1(7-37)OH for the second.

First: B13
Second: B14
The “GLP-1 Receptor Activation” value of the first is higher: 0.19 relative to GLP-1(7-37)OH for the first, 0.094 relative to GLP-1(7-37)OH for the second.

First: B15
Second: B16
The “GLP-1 Receptor Activation” value of the first is higher: 0.33 relative to GLP-1(7-37)OH for the first, 0.23 relative to GLP-1(7-37)OH for the second.

First: B17
Second: B18
The “GLP-1 Receptor Activation” value of the first is higher: 1.18 relative to GLP-1(7-37)OH for the first, 0.41 relative to GLP-1(7-37)OH for the second.

Compared with B19, B20 is higher in “GLP-1 Receptor Activation” value: 0.11 relative to GLP-1(7-37)OH for the first, 0.282 relative to GLP-1(7-37)OH for the second.

First: B21
Second: B22
The “GLP-1 Receptor Activation” value of the first is higher: 0.81 relative to GLP-1(7-37)OH for the first, 0.56 relative to GLP-1(7-37)OH for the second.

First: B23
Second: B24
The “GLP-1 Receptor Activation” value of the first is higher: 0.8 relative to GLP-1(7-37)OH for the first, 0.19 relative to GLP-1(7-37)OH for the second.

Compared with B25, B26 is lower in “GLP-1 Receptor Activation” value: 0.5 relative to GLP-1(7-37)OH for the first, 0.1 relative to GLP-1(7-37)OH for the second.

First: B27
Second: B28
The “GLP-1 Receptor Activation” value of the first is higher: 0.4 relative to GLP-1(7-37)OH for the first, 0.18 relative to GLP-1(7-37)OH for the second.

First: B29
Second: B30
The “GLP-1 Receptor Activation” value of the first is higher: 0.112 relative to GLP-1(7-37)OH for the first, 0.08 relative to GLP-1(7-37)OH for the second.

First: B31
Second: B32
The “GLP-1 Receptor Activation” value of the first is lower: 0.01 relative to GLP-1(7-37)OH for the first, 0.15 relative to GLP-1(7-37)OH for the second.

Compared with B33, B34 is higher in “GLP-1 Receptor Activation” value: 0.37 relative to GLP-1(7-37)OH for the first, 0.42 relative to GLP-1(7-37)OH for the second.

Compared with B35, B36 is higher in “GLP-1 Receptor Activation” value: 0.02 relative to GLP-1(7-37)OH for the first, 0.14 relative to GLP-1(7-37)OH for the second.

First: B37
Second: B38
The “GLP-1 Receptor Activation” value of the first is higher: 0.22 relative to GLP-1(7-37)OH for the first, 0.007 relative to GLP-1(7-37)OH for the second.

Compared with B39, B40 is lower in “GLP-1 Receptor Activation” value: 0.01 relative to GLP-1(7-37)OH for the first, 0.001 relative to GLP-1(7-37)OH for the second.

Compared with B41, B42 is lower in “GLP-1 Receptor Activation” value: 0.34 relative to GLP-1(7-37)OH for the first, 0.29 relative to GLP-1(7-37)OH for the second.

First: B43
Second: B44
The “GLP-1 Receptor Activation” value of the first is lower: 0.53 relative to GLP-1(7-37)OH for the first, 1 relative to GLP-1(7-37)OH for the second.

First: B45
Second: B46
The “GLP-1 Receptor Activation” value of the first is lower: 0.28 relative to GLP-1(7-37)OH for the first, 0.53 relative to GLP-1(7-37)OH for the second.

For B47, the “GLP-1 Receptor Activation” value was 0.35 relative to GLP-1(7-37)OH.
